For this test, the target named is human recombinant FGF-2 (human, UniProt P09038 143-288).

Where no end group is shown, it is not given here. The star is where a group is joined. Biotin = O=C1N[C@H]2[C@H](CS[C@H]2CCCCC(=O)*)N1

The koff is a measure of how fast the partners let go of each other.

Sequence of human recombinant FGF-2 (P09038 143-288): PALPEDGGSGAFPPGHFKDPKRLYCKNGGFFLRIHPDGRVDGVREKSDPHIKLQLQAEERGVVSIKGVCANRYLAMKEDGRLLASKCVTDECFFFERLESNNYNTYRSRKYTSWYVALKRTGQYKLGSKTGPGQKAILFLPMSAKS

On to Biotin-KKKQKNGKKHQKKKVLKVRKSQRSRQKKTT [biotinylated CXCL9(74-103)], for which the off-rate constant (koff) stood at 0.00207 s⁻¹.
